Test results as given in patent publication US20190328788A1 (GENAGON THERAPEUTICS, published 2019).
Ends that are not written are not given here.

T1: transforming growth factor-beta 2 (TGF-β2) (UniProt P61812 303-414)
T1 construct: also called TGFb2; TGFB2
T1 sequence (looked up): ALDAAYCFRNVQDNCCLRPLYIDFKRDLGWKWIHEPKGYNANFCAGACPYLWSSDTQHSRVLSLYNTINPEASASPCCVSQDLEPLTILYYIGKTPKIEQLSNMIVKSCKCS

T2: Growth and Differentiation Factor 15 (GDF15) (UniProt Q99988 197-308, limits assumed)
T2 construct: also called MIC-1; MIC1
T2 sequence (looked up): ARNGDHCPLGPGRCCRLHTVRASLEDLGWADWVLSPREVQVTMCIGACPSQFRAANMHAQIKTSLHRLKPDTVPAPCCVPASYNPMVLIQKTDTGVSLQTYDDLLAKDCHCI

T3: transforming growth factor-beta 3 (TGF-β3) (UniProt P10600 301-412)
T3 construct: also called TGFb3; TGFB3
T3 sequence (looked up): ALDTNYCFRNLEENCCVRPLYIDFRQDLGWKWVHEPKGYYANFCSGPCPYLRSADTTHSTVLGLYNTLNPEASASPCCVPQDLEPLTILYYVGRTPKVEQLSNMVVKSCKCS


How the values were obtained:
Test in all cases: ELISA, peptide on streptavidin plate, ligand 100 ng/ml
[1] = target: T1, transforming growth factor-beta 2 …
Description: (§1) Biotinylated synthetic peptide fragments from CLPTM1 (JPT peptides, Germany) were immobilized in a streptavidin 96 well plate (#15500 Pierce) at 1 μM in PBS over night at +4° C. Plate was then washed 4 times in 300 μl PBS with 0.05% tween-20 (wash buffer). The plate was then blocked with PBS 1% BSA and 0.05% tween-20 (blocking buffer) for 1.5 hours at room temperature, then washed 4 times in wash buffer. Ligands GDF15, TGFb1, TGFb2 and TGFb3 (Abcam) were added in blocking buffer at 100 ng/ml and incubated at room temperature for 2 hours. The plate was then washed 8 times in 300 μL wash buffer with 2× NaCl. An anti-GDF15 antibody was added at 1 μg/ml (R&D Systems, goat polyclonal) or a pan-specific anti-TGFb antibody (R&D Systems, mouse 1 D11), and the plate incubated in blocking buffer for 1 hour at room temperature followed by washing with 4×300 μl wash buffer. HAF017 anti-goat-HRP antibody (to detect the anti-GDF15 antibody) or Santa Cruz sc-2005 Goat anti-mouse-HRP (to detect the pan-specific anti-TGFb antibody) was added and the plate incubated for 1 hour in blocking buffer followed by a wash. TMB substrate was added and stopped after 15 minutes with H₂SO₄. OD 450-620 was measured in an ELISA reader.

[2] = target: T2, Growth and Differentiation Factor 15 …
Description: as §1

[3] = target: T4, transforming growth factor-beta 1 (TGF-β1) (UniProt P01137 279-390)
T4 construct: also called TGFb1; TGFB1
T4 sequence (P01137 279-390 limits assumed): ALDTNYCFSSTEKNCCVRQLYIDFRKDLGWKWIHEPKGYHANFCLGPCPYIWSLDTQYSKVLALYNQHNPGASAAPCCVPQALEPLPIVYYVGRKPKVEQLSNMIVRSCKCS
Description: as §1

[4] = target: T3, transforming growth factor-beta 3 …
Description: as §1

| Binder | ELISA OD450 [1] [OD450] | ELISA OD450 [2] [OD450] | ELISA OD450 [3] [OD450] | ELISA OD450 [4] [OD450] |
| --- | --- | --- | --- | --- |
| RIFIIWAISSWFRRGPAPQDG (also: biotinylated, site not given here) [CLPTM1 peptide fragment of SEQ ID NO: 11] | -0.003 | 0.026 | 0.008 | 0.003 |
| AAAQEADGARSAVVAAGGGSG (also: biotinylated, site not given here) [CLPTM1 peptide fragment of SEQ ID NO: 8] | 0.01 | 0.022 | 0.012 | 0.015 |
| LWRWQLYAAQSTKSPWNFLGDELYEQSDEEQDSVKVALLETNP (also: biotinylated, site not given here, also called peptide 26; GT2) [CLPTM1 peptide fragment of SEQ ID NO: 33] | 0.009 | 0.021 | 0.177 | 0.007 |
| NAWQVIKGVLFRIFIIWAISSWFRRGPAPQDQAGPGGA (also: biotinylated, site not given here, also called peptide 28; GT4) [CLPTM1 peptide fragment of SEQ ID NO: 35] | 0.031 | 0.029 | 0.098 | 0.027 |
| SGDYYPIIYFNDYWNLQKDYYPINESLASLPLRVSFCPLS (also: biotinylated, site not given here, also called peptide 25; GT1) [CLPTM1 peptide fragment of SEQ ID NO: 32] | 1.63 | 0.779 | 2.1 | 0.3 |
| QNPPAQPAPNAWQVIKGVLFG (also: biotinylated, site not given here) [CLPTM1 peptide fragment of SEQ ID NO: 10] | 0.013 | 0.042 | 0.026 | 0.006 |
| QAGPGGAPRVASRNLFPKDTG (also: biotinylated, site not given here) [CLPTM1 peptide fragment of SEQ ID NO: 12] | -0.006 | 0.034 | 0.003 | 0.004 |
| ARSAVVAAGGGSSGQVTSNGSIGRDPPAETQPQNPPAQPA (also: biotinylated, site not given here, also called peptide 27; GT3) [CLPTM1 peptide fragment of SEQ ID NO: 34] | 0.123 | 0.016 | 0.058 | 0.003 |

Continued, values first:

| ELISA OD450 [1] [OD450] | ELISA OD450 [2] [OD450] | ELISA OD450 [3] [OD450] | ELISA OD450 [4] [OD450] | Binder |
| --- | --- | --- | --- | --- |
| 0.838 | 0.174 | 1.64 | 0.095 | DTLMNLHVYISEHEHFTDFNATSALFWEQHDLVYGDWTSG (also: biotinylated, site not given here, also called peptide 29; GT5) [CLPTM1 peptide fragment of SEQ ID NO: 36] |
| 0.91 | 0.137 | 1.86 | 0.074 | PLDQYVKFDAVSGDYYPIIYFNDYWNLQKDYYPINESLA (also: biotinylated, site not given here, also called peptide 32; GT8) [CLPTM1 peptide fragment of SEQ ID NO: 39] |
| 2.09 | 0.518 | 2.81 | 0.399 | SGDYYPIIYFNDYWNLQKDYYPINESLA (also: biotinylated, site not given here, also called peptide 33; GT9) [CLPTM1 peptide fragment of SEQ ID NO: 40] |
| 0.483 | 0.209 | 0.389 | 0.613 | TKSGFHPDPRQKALYRRLATVHMSRMINKYKRRRFQKTKN (also: biotinylated, site not given here, also called peptide 30; GT6) [CLPTM1 peptide fragment of SEQ ID NO: 37] |
| 0.717 | 0.383 | 1.01 | 0.091 | VSGDYYPIIYFNDYWNLQKDYYPINESLASLPLRVSFC (also: biotinylated, site not given here, also called peptide 31; GT7) [CLPTM1 peptide fragment of SEQ ID NO: 38] |
